Data taken from patent publication US7029857B1, “Processes for obtaining compounds employing SNORF72 receptors” (H. Lundbeck A/S, priority 1999, dated 2006).
No end group written: not given here.

T1: human SNORF62 receptor (human, UniProt Q9HB89 1-426)
T1 sequence: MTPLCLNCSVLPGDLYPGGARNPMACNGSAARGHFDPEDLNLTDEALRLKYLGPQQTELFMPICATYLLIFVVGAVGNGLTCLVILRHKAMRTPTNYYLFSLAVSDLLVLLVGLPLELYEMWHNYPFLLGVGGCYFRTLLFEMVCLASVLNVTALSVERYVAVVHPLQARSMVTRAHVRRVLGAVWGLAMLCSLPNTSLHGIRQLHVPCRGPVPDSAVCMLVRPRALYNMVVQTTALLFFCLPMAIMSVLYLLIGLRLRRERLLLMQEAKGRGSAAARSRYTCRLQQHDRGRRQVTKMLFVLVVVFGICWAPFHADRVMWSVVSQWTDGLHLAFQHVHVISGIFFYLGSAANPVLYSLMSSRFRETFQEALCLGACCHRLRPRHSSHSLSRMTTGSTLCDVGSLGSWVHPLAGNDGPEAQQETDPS


Tests used:
[1] = target: T1, human SNORF62 receptor; test: displacement of [125I]rat NMU-23, membranes of SNORF62-transfected COS-7 cells
Description: (§1) Radioligand binding assays were performed by diluting membranes prepared from cells expressing the receptor in 50 mM Tris buffer (pH=7.4 at 0° C.) containing 0.1% bovine serum albumin (Sigma), aprotinin (0.005 mg/ml, Boehringer Mannheim) and bestatin (0.1 mM, Sigma) as protease inhibitors. The final protein concentration in the assay was 12–40 µg/ml. […] The bound ligand was separated from free by filtration through GF/B filters presoaked in 0.5% polyethyleneimine (PEI), using a Tomtec (Wallac) vacuum filtration device. After addition of Ready Safe (Beckman) scintillation fluid, bound radioactivity was quantitated using a Trilux (Wallac) scintillation counter (approximately 40% counting efficiency of bound counts). Data was fit to non-linear curves using GraphPad Prism.

[2] = target: T2, human SNORF72 receptor (human, UniProt Q9GZQ4 1-415); test: displacement of [125I]rat NMU-23, membranes of SNORF72-transfected COS-7 cells
T2 sequence (Q9GZQ4 other isoform, or with tags, fused parts or gaps): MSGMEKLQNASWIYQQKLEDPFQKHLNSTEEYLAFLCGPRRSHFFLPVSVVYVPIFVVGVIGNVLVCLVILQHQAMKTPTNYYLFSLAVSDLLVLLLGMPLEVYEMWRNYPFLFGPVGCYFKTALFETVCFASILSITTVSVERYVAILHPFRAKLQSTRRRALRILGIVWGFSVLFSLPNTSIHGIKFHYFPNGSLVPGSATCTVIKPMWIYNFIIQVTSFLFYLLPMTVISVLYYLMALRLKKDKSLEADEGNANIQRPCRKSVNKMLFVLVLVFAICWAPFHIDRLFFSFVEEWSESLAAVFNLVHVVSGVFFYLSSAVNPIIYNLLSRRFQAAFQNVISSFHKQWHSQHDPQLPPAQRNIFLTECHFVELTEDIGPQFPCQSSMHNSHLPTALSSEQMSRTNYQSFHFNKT
Description: as §1

[3] = target: T1, human SNORF62 receptor; test: displacement of [125I]rat NMU-23 (0.05-0.1 nM), membranes of SNORF62-transfected COS-7 cells, n=2
Description: as §1

[4] = target: T2, human SNORF72 receptor; test: displacement of [125I]rat NMU-23 (0.05-0.1 nM), membranes of SNORF72-transfected COS-7 cells, n=2
Description: as §1

[5] = target: T1, human SNORF62 receptor; test: cell-based or functional assay
[6] = target: T2, human SNORF72 receptor; test: cell-based or functional assay
[7] = target: T1, human SNORF62 receptor; test: cell-based or functional assay; remark: listed apart in the source

Ki [1] | Ki [2] | pKi [3] | pKi [4] | Avg EC50 (nM), stimulation of Ca2+ release in SNORF62-transfected COS-7 cells [5] | Avg EC50 (nM), stimulation of Ca2+ release in SNORF72-transfected COS-7 cells [6] | AVG EC50 (nM), stimulation of Ca++ release in SNORF62-transfected COS-7 cells (FLIPR) [7] | Molecule
> 10000 nM | > 10000 nM | < 5 | < 5 | – | – | – | frog PP (peptide)
– | 1.8 nM | 9 | 8.7 | 5.2 nM | 3 nM | 5.2 nM | FKVDEEFQGPIVSQNRRYFLFRPRN-NH2 (also called porcine neuromedin U-25) [porcine NMU-25]
> 10000 nM | > 10000 nM | < 5 | < 5 | – | – | – | APLEPMYPGDYATHEQRAQYETQLRRYINTLTRPRY (peptide, UniProt P06303 30-65, looked up, also called rat pancreatic polypeptide) [rat PP]
> 10000 nM | > 10000 nM | < 5 | < 5 | – | – | – | HSDAVFTDNYTRLRKQMAVKKYLNSILN-NH2 (peptide, UniProt P01282 125-152, looked up, species assumed, ends and bridges not checked) [vasoactive intestinal peptide]
